The values that follow come from publication PMC4084727.

Data set [1] addresses T1, GST-Freud-2 (GST-hF2) (Homo sapiens, UniProt Q5T0F9 1-858).
T1 sequence: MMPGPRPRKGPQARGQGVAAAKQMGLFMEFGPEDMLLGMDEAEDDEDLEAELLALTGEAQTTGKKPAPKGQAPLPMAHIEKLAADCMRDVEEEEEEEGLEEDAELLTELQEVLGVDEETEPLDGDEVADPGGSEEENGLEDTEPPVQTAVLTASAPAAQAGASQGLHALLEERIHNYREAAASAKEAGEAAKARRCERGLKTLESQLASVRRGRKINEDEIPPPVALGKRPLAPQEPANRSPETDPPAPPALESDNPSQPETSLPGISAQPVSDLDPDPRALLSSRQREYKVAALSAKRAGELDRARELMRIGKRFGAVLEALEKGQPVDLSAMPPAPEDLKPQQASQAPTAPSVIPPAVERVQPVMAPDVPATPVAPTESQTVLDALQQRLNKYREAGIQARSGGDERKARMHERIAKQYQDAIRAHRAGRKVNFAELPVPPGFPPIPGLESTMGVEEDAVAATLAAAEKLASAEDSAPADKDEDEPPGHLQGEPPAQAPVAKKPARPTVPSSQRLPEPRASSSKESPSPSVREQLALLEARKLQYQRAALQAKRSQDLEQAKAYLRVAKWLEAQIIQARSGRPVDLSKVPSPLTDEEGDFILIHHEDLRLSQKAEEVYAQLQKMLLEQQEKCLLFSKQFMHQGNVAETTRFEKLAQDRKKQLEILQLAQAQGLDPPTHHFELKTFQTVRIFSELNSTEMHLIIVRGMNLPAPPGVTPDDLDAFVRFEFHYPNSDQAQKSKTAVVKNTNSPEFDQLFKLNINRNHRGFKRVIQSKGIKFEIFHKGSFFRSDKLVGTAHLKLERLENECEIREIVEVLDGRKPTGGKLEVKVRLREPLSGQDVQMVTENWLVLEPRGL
Kind of data set: competition.

The target in data set [2] is T1, GST-Freud-2 (GST-hF2). The data set can be described thus: competition. The source holds these as a separate data set.
For data set [3], the target named is T1, GST-Freud-2 (GST-hF2). The data set can be described thus: competition. The source holds these as a separate data set.
The target of data set [4] is T1, GST-Freud-2 (GST-hF2). Kind of data set: EMSA.
For data set [5], the target named is T1, GST-Freud-2 (GST-hF2). Kind of data set: EMSA. This is another data set of the same source. (In general: In EMSA bound probe runs differently from free probe, usually more slowly.)

B1: 17-bp 5' (-1624/-1608) (dsDNA)
DNA 1: AGATGGCACTCTAAAAC
DNA 2: GTTTTAGAGTGCCATCT
With B1, in the data set with GST-Freud-2 (GST-hF2) [1], the binding result is “binds”.

B2: 12-bp 3' (-1578/-1566) (dsDNA)
DNA 1: CATTGCTTAGAA
DNA 2: TTCTAAGCAATG
As for B2, the binding result with GST-Freud-2 (GST-hF2) [2] is on record as “no binding”.

B3: 19-bp 3' (-1597/-1578) (dsDNA)
DNA 1: AGGTGGCGACATAAAACCT
DNA 2: AGGTTTTATGTCGCCACCT
B3: in the data set with GST-Freud-2 (GST-hF2) [3], the binding result was “binds”.

B4: 5'-DRE (-1624/-1598) (dsDNA)
DNA 1: AGATGGCACTCTAAAACATTTGCCAGA
DNA 2: TCTGGCAAATGTTTTAGAGTGCCATCT
Take B4: in the data set with GST-Freud-2 (GST-hF2) [4], the binding result is “binds”.

B5: 3'-DRE (-1597/-1565) (dsDNA)
DNA 1: AGGTGGCGACATAAAACCTCATTGCTTAGAACT
DNA 2: AGTTCTAAGCAATGAGGTTTTATGTCGCCACCT
In the case of B5, the binding result in the data set with GST-Freud-2 (GST-hF2) [5] is recorded as “binds”.

B6: 16-bp 5' (-1613/-1598) (dsDNA)
DNA 1: TAAAACATTTGCCAGA
DNA 2: TCTGGCAAATGTTTTA
On to B6, for which, in the data set with GST-Freud-2 (GST-hF2) [1], the binding result is on record as “binds”.
